Test results as given in PMC6726503.

Target: T1, human TGF-β2 (human)
T1 sequence (P61812 303-414, looked up): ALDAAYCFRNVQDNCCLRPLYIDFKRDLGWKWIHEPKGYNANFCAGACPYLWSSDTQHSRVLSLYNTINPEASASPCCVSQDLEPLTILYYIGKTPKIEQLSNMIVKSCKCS
Test: SPR

- Kd: 0.511 nM
- koff: 0.000755 s⁻¹
- kon: 1.48e+06 M⁻¹ s⁻¹
B1: full-length rat betaglycan ectodomain (domain or fragment)
chain: GPEPSTRCELSPINASHPVQALMESFTVLSGCASRGTTGLPREVHVLNLRSTDQGPGQRQREVTLHLNPIASVHTHHKPIVFLLNSPQPLVWHLKTERLAAGVPRLFLVSEGSVVQFPSGNFSLTAETEERNFPQENEHLLRWAQKEYGAVTSFTELKIARNIYIKVGEDQVFPPTCNIGKNFLSLNYLAEYLQPKAAEGCVLPSQPHEKEVHIIELITPSSNPYSAFQVDIIVDIRPAQEDPEVVKNLVLILKCKKSVNWVIKSFDVKGNLKVIAPNSIGFGKESERSMTMTKLVRDDIPSTQENLMKWALDNGYRPVTSYTMAPVANRFHLRLENNEEMRDEEVHTIPPELRILLDPDHPPALDNPLFPGEGSPNGGLPFPFPDIPRRGWKEGEDRIPRPKQPIVPSVQLLPDHREPEEVQGGVDIALSVKCDHEKMVVAVDKDSFQTNGYSGMELTLLDPSCKAKMNGTHFVLESPLNGCGTRHRRSTPDGVVYYNSIVVQAPSPGDSSGWPDGYEDLESGDNGFPGDGDEGETAPLSRAGVVVFNCSLRQLRNPSGFQGQLDGNATFNMELYNTDLFLVPSPGVFSVAENEHVYVEVSVTKADQDLGFAIQTCFLSPYSNPDRMSDYTIIENICPKDDSVKFYSSKRVHFPIPHAEVDKKRFSFLFKSVFNTSLLFLHCELTLCSRKKGSLKLPRCVTPDDACTSLDATMIWTMMQNKKTFTKPLAVVLQVDYKENVPSTKDSSPIPPPPPQIFHGLDTLTV
